According to patent US20170267750A1 (CELLDEX THERAPEUTICS, published 2017):
Substitutions are numbered along the chain they refer to.

T1: alanine scan peptide PMPLARQNHE
T1 construct: Synthetic; third P replaced by A
T1 peptide: PMPLARQNHE

T2: alanine scan peptide PMPLPRQAHE
T2 construct: Synthetic; N replaced by A
T2 peptide: PMPLPRQAHE

T3: TIM-1 (T cell, immunoglobulin domain and mucin domain 1), cell membrane-bound (human, UniProt Q96D42 21-364)
T3 construct: whole, on cells; also called TIM-1 antigen expressed on ACHN, CAKI-2, CAKI-1 cells; TIM-1 on polarized human CD4+ Th1/Th2 cells
T3 sequence (looked up): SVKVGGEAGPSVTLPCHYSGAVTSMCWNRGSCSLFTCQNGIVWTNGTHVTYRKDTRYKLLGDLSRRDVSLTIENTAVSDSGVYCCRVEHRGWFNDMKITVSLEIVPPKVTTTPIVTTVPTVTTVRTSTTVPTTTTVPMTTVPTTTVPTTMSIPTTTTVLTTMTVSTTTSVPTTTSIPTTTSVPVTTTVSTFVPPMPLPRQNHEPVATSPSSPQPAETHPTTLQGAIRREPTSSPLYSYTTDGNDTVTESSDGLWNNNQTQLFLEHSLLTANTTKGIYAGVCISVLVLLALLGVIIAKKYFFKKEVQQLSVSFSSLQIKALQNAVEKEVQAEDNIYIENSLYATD

T4: TIM-1 antigen, soluble extracellular domain of TIM-1 (CG57008-02) with a V5-HIS tag (human, UniProt Q96D42 21-288)
T4 construct: also called TIM-1 immunogen; TIM-1 protein
T4 sequence: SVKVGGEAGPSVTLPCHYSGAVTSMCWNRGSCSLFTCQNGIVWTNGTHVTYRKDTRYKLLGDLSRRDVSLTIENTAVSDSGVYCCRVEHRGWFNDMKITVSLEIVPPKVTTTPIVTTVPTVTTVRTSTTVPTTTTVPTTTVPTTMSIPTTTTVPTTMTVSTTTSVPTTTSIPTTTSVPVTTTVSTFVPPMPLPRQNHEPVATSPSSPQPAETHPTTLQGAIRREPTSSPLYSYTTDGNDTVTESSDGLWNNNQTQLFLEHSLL

B1: anti-TIM-1 monoclonal antibody 2.70.2 (antibody, human IgG4, kappa, V domains shown)
VH: QVQLVESGGGVVQPGRSLRLSCAASGFIFSRYGMHWVRQAPGKGLKWVAVIWYDGSNKLYADSVKGRFTISRDNSKNTLYLQMNSLRAEDTAVYYCARDYYDNSRHHWGFDYWGQGTLVTVSS
VL: DIVMTQTPLSLPVTPGEPASISCRSSRSLLDSDDGNTYLDWYLQKPGQSPQLLIYTLSYRASGVPDRFSGSGSGTDFTLKISRVEAEDVGVYYCMQRVEFPITFGQGTRLEIKR
notes: also called mAb 2.70.2; mAb2.70.2
B2: anti-TIM-1 monoclonal antibody 2.59 (antibody, V domains shown)
VH: QSGPRLVKPSQTLSLTCTVSGGSISSDGYYWSWIRQHPGKGLEWIGYIYYSGSTFYNPSLKSRVAISVDTSKNQFSLKLSSVTAADTAVYYCARESPHSSNWYSGFDCWGQGTLVTVSS
VL: TQSPDFQSVTPKEKVTITCRASQSIGSRLHWYQQKPDQSPKLLIKYASQSFSGVPSRFSGSGSGTDFTLTINSLEAEDAATYYCHQSSNLPFTFGPGTKVDIKR
B3: anti-TIM-1 monoclonal antibody 1.29 (antibody, V domains shown)
VH: QVQLQESGPGLVKPSETLSLTCTVSGGSVSSGGYYWSWIRQPPGKGLEWIGFIYYTGSTNYNPSLKSRVSISVDTSKNQFSLKLSSVTAADAAVYYCARDYDWSFHFDYWGQGTLVTVSS
VL: DIQMTQSPSSLSASIGDRVTITCRASQGIRNDLGWYQQKPGKAPKRLIYAASSLQSGVPSRFSGSGSGTEFTLTISSLQPEDFATYYCLQHNSYPLTFGGGTKVEIKR
notes: also called mAb 1.29
B4: anti-TIM-1 monoclonal antibody 2.16 (antibody, V domains shown)
VH: EQSGGGVVKPGGSLRLSCAASGFTFSNAWMTWVRQAPGKGLEWVGRIKRRTDGGTTDYAAPVKGRFTISRDDSKNTLYLQMNNLKNEDTAVYYCTSVDNDVDYWGQGTLVTVSS
VL: not shown
notes: also called 2.16.1 (subclone)
B5: anti-TIM-1 monoclonal antibody 2.70 (antibody, V domains shown)
VH: B1 VH
VL: B1 VL
B6: anti-TIM-1 monoclonal antibody 2.61 (antibody, V domains shown)
VH: B1 VH with S7A, I28T, S30R, R31S, L59Y, A61T, A97V
VL: B3 VL with L11R, S12C, I15V, G34A, G66R, T85A, L96P, T97S, G100Q, V104L
B7: anti-TIM-1 monoclonal antibody 1.37 (antibody, V domains shown)
VH: EVQLVESGGGLVQPGGSLRLSCAASGFTFTNYWMSWVRQAPGKGLEWVANIQQDGSEKYYVDSVRGRFTISRDNAKNSLYLQMNSLRAEDSAVYYCARWDYWGQGTLVTVSS
VL: DIVMTQTPLSSTVILGQPASISCRSSQSLVHSDGNTYLNWLQQRPGQPPRLLIYMISNRFSGVPDRFSGSGAGTDFTLKISRVEAEDVGVYYCMQATESPQTFGQGTKVEIKR
B8: anti-TIM-1 monoclonal antibody 2.76 (antibody, V domains shown)
VH: EQSGGGVVQPGRSLRLSCAASGFTFSSYGMYWVRQAPGKGLEWVAVIWYDGSNKYYADSVKGRFTISRDNSKNTLYLQMNSLRAEDTAVYYCARDFYDSSRYHYGMDVWGQGTTVTVSS
VL: TQCPLSLPVTPGEPASISCRSSQSLLDSDDGNTYLDWYLQKPGQSPQLLIYTVSYRASGVPDRFSGSGSGTDFTLKISRVEAEDVGVYYCMQRIEFPITFGQGTRLEIKR

Biological target: T1, alanine scan peptide PMPLARQNHE
Assay: ELISA on coated synthetic peptide (alanine scan)

Row | Binder | binding result
1 | B1 | no binding

Biological target: T2, alanine scan peptide PMPLPRQAHE
Assay: ELISA on coated synthetic peptide (alanine scan)

Row | Binder | binding result
2 | B1 | no binding

biological target: T3, TIM-1 (T cell, immunoglobulin domain …); assay: FACS on CAKI-2 cells, normalised to isotype control pK16

Row | Binder | Geo Mean Ratio (relative to negative control) [ratio]
3 | B2 | 7.7
4 | B1 | 8.8

biological target: T3, TIM-1 (T cell, immunoglobulin domain …); assay: FACS on ACHN cells, normalised to isotype control pK16

Row | Binder | Geo Mean Ratio (relative to negative control) [ratio]
5 | B2 | 15.2
6 | B1 | 19.4
7 | B3 | 17.9
8 | B4 | 7.9

biological target: T4, TIM-1 antigen, soluble extracellular …; assay: BIAcore 2000, 25 C, mAb captured on goat anti-human surface, TIM-1 antigen injected at 292 nM
Method: BiaCore® analysis was used to determine binding affinity of anti-TIM-1 antibody to TIM-1 antigen. The analysis was performed at 25° C. using a BiaCore® 2000 biosensor equipped with a research-grade CMS sensor chip. A high-density goat a human antibody surface over a CMS BiaCore® chip was prepared using routine amine coupling. Antibody supernatants were diluted to ˜5 μg/mL in HBS-P running buffer containing 100 μg/mL BSA and 10 mg/mL carboxymethyldextran. The antibodies were then captured individually on a separate surface using a 2 minute contact time, and a 5 minute wash for stabilization of antibody baseline.
Double-referenced binding data were obtained by subtracting the signal from a control flow cell and subtracting the baseline drift of a buffer inject just prior to the TIM-1 injection. TIM-1 binding data for each mAb were normalized for the amount of mAb captured on each surface. The normalized, drift-corrected responses were also measured.

Row | Binder | Kd [nM]
9 | B2 | 0.38
10 | B5 | 2.71
11 | B3 | 3.64
12 | B6 | 1
13 | B4 | 0.79
14 | B7 | 2.78
15 | B8 | 0.57
